Measured values from paper PMC3489787, “Characterization of EssB, a protein required for secretion of ESAT-6 like proteins in Staphylococcus aureus” (BMC Microbiology, 2012).

B1: EssB^MC (domain or fragment)
chain: RKVGHTVFKWVAIGMTTLSVLLIAFLAFLYFSVMKHNERIEKGYQAFVKDDYTQVLNTYDDLDGKKLDKEALYIYAKSYIQTNKQGLEKDKKENLLNNVTPNSNKDYLLYWMELGQGHLDEAINIATYLDDNDITKLALINKLNEIKNNGDLSNDKRSEETKKYNDKLQDILDKEKQVKDEKAKSEEEKAKAKDEKLKQQEENEKKQKEQAQKDKEKRQEAERKK
notes: EssB of Staphylococcus aureus, codons 220-444, C-terminal domain with the PTMD (229-251); also called EssB^CM; his-essB^CM product; source: E. coli, pET15b, purified (Ni-NTA Agarose, thrombin cleavage); not shown: His6, N-terminal, cleaved
B2: EssB^NM (domain or fragment)
chain: MVKNHNPKNEMQDMLTPLDAEEAAKTKLRLDMREIPKSSIKPEHFHLMYLLEQHSPYFIDAELTELRDSFQIHYDINDNHTPFDNIKSFTKNEKLRYLLNIKNLEEVNRTRYTFVLAPDELFFTRDGLPIAKTRGLQNVVDPLPVSEAEFLTRYKALVICAFNEKQSFDALVEGNLELHKGTPFETKVIEAATLDLLTAFLDEQYQKQEQDYSQNYAYVRKVGHTVFKWVAIGMTTLSVLLIAFLAFLYFSV
notes: EssB of Staphylococcus aureus, codons 1-252, N-terminal domain with the PTMD (229-251); also called his-essB^NM product; EssB(1-252); source: E. coli, pET15b, purified (Ni-NTA Agarose, thrombin cleavage); not shown: His6, N-terminal, cleaved

Molecular target: the molecule itself
Test: SEC; about 100 ug of each purified protein, tags removed, on Superdex 75 10/300 GL in 50 mM Tris-HCl pH 8.0, 150 mM NaCl, 1 mM DTT at 4 °C, 0.5 ml/min; fractions on Coomassie-stained SDS-PAGE; calibrated with aldolase 158, conalbumin 75, ovalbumin 43, myoglobin 17 kDa (the results name a Sephacryl S-200 column)

Protein | binding result
B1 | binds
B2 | binds
